# Reference: patent US20190040477
# Legend:
# [1] = tested on: GST-mRtACPII (S1253A mutant of the second ACP domain of Rhodosporidium toruloides Fas2, residues 1213-1375, as GST fusion protein)
# [2] = tested on: GST-wRtACPI (wild type first ACP domain of Rhodosporidium toruloides Fas2, residues 1022-1184, as GST fusion protein)
# [3] = tested on: GST-mRtACPI (S1062A mutant of the first ACP domain of Rhodosporidium toruloides Fas2, residues 1022-1184, as GST fusion protein)
# [4] = tested on: GST-wRtACPII (wild type second ACP domain of Rhodosporidium toruloides Fas2, residues 1213-1375, as GST fusion protein)
substance,measurement,setting,value
"GST-RtPPT (phosphopantetheinyl transferase domain of Rhodosporidium toruloides Fas2, residues 2809-2928, as GST fusion protein)","ΔM (Da): change in molecular weight of the ACP after treatment by PPT, MALDI-TOF mass spectrometry (in vitro phosphopantetheinylation)",[1],46 Da
same,"ΔM (Da): gain in molecular weight of the ACP after treatment by PPT, MALDI-TOF mass spectrometry (in vitro phosphopantetheinylation)",[2],332 Da
same,"ΔM (Da): change in molecular weight of the ACP after treatment by PPT, MALDI-TOF mass spectrometry (in vitro phosphopantetheinylation)",[3],2 Da
same,"ΔM (Da): gain in molecular weight of the ACP after treatment by PPT, MALDI-TOF mass spectrometry (in vitro phosphopantetheinylation)",[4],322 Da
